In paper PMC2191135 one finds % inhibition of fibrinogen binding data, which are given here for one molecule.

The target of the test is platelet membrane GPIIb-IIIa complex (alpha IIb/beta 3 integrin) (human (endogenous in platelets)) (UniProt P08514). Nature of the test: radioligand binding.

Take RGDS [arginine, glycine, aspartic acid (RGDS)]: the % inhibition of fibrinogen binding at 100 uM RGDS is 92%.
